In patent US20030157712A1, “Methods for determining cell responses through EphB receptors” (priority 1997, published 2003):

Key:
EphB1 = target: T1, EphB1 (Homo sapiens, UniProt P54762); test: EphB1 immunoprecipitation and phosphotyrosine immunoblot; assay type: cell-based; conditions: endothelial cells on adsorbed ligand
T1 construct: Ligand stimulation and immunoprecipitation of endogenous EphB receptors; endogenous in cells; host or cells: HRMEC (human); P19 (murine teratocarcinoma) in part of the results
T1 sequence (P54762 18-984): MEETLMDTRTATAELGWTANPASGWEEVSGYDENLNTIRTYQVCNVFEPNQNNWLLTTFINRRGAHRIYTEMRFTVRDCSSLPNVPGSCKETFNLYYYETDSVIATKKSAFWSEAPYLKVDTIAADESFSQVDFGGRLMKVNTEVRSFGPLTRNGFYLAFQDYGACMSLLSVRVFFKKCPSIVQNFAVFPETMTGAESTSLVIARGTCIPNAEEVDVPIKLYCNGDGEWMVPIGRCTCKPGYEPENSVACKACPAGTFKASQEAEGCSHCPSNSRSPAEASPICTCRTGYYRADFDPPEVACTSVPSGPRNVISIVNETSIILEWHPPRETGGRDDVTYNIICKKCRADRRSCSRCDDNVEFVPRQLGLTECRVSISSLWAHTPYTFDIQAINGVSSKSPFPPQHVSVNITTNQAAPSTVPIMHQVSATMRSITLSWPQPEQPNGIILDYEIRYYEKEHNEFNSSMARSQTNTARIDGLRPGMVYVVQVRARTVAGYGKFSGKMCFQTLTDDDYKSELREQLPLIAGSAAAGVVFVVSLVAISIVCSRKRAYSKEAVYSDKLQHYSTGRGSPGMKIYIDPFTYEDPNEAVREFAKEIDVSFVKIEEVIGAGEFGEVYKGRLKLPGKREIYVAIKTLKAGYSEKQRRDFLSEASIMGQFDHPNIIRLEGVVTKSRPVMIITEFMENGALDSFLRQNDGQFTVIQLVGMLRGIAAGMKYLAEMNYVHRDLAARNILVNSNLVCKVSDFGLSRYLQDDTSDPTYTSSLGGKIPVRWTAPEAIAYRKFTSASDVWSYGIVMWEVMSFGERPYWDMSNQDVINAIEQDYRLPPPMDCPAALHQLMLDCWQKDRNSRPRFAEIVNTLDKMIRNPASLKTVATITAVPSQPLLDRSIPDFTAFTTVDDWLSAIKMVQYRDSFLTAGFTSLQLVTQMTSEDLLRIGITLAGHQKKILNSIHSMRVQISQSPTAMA

HRMEC = test: Endothelial assembly into capillary-like structures (HRMEC); assay type: cell-based, human; conditions: HRMEC on Matrigel, two dimensional in vitro assay, 8 h
Experimental: Endothelial assembly into capillary-like structures. Twelve well plates (Falcon) were coated with thin layers of Matrigel. HRMEC were plated at a density of 4×10^4 cells/well in DME containing 1% fetal bovine serum. Indicated agonists, control peptides, alone, or in combination with the EphB1/Fc antagonist (1000 ng ml^−1) (FIG. 5) were added at the time of plating. Cells were incubated at 37° C. for 8 h and photographed using phase microscopy (magnification 100×) (Diaphot-TMD, Nikon).

P19 cells = test: P19 attachment to nitrocellulose coated surfaces preadsorbed with ligand and fibronectin; assay type: cell-based, murine; conditions: 500 ng/well ligand with fibronectin 500 ng/well on nitrocellulose, 90 min at 37° C.
Experimental: Specifically, nitrocellulose coated surfaces were preadsorbed with 500 ng/well of non-denatured ephrin-B1/Fc, either as dimer (LERK-2/Fc) or preclustered multimer (LERK2/FC+anti-Fc) or control protein (anti-Fc, BSA), with fibronectin (500 ng/well). P19 cells were plated and the % attached cells were assayed after a 90 min incubation at 37° C.

[1] = system: human renal microvascular endothelial cells; test: Solid phase cell attachment assay (HRMEC); assay type: cell-based
Experimental: Solid phase cell attachment assays. Forty-eight-well plates (Falcon) were coated with a layer of nitrocellulose (Schleicher & Schuell) and allowed to air dry as described (47). Coated wells were incubated overnight at 4° C. with PBS containing matrix proteins at the indicated concentrations alone (no addition, NA) or in combination with dimeric EphrinB1/Fc. Two hours prior to assay, wells were washed twice then blocked at 37° C. with 1% BSA. Serum starved cells were harvested in 2 mM EDTA in PBS (HEK293) or recovered by trypsinization (HRMEC), washed twice in serum free medium containing 1% BSA, then plated at a density of 0.7-1×10^5 cells per well. After incubation at 37° C. for 1 hour (or as specified), unattached cells were dislodged by 5 brisk slaps of the plate on a horizontal surface. Wells were gently washed with PBS until cells were not adherent to albumin-coated wells. Adherent cells were fixed with 2% glutaraldehyde, stained with 0.5% crystal violet (in EtOH), and quantified by OD reading at 570 nm. In experiments using competitive peptides or blocking antibodies, cells were preincubated with the indicated peptides (100 μM) or antibodies (10 μg/ml) for 15 min at RT before plating. Results representative of three independent experiments are given as OD values and represent the mean of duplicate or triplicate wells±SEM.
To determine if this ephrin-B1 surface density effect was mediated through integrins, a defined RGD peptide, GRGDSPK (SEQ ID NO:3), was applied to the surfaces in the absence and presence of ephrin-B1/Fc, or IgG1. Attachment assays of serum-starved microvascular endothelial cells to GRGDSPK (SEQ ID NO:3)-coated 48-well-plates were performed as described herein. Cells were preincubated for 15 min at 22° C. with blocking peptides (100 uM) or anti-integrin antibodies (10 ug/ml) before plating. Similar results were obtained using fibrinogen (1 ug/cm^2). HEK293 cells were transiently transfected with pSRα-EphB1 and attachment assays were performed after 48 hours as described herein.

[2] = fibrinogen-coated nitrocellulose surfaces

EphB1 receptor activation at densities greater than 300 ng/cm^2 (EphB1): did not show a decrement
adsorption densities stimulating EphB1 receptor activation (EphB1; phosphotyrosine immunoblot): greater than 100 ng/cm^2
B1: ephrin-B1/Fc dimers: disulfide-linked immunoglobulin Fc fusion form of ephrin-B1 (protein)
chain: LAKNLEPVSWSSLNPKFLSGKGLVIYPKIGDKLDIICPRAEAGRPYEYYKLYLVRPEQAAACSTVLDPNVLVTCNRPEQEIRFTIKFQEFSPNYMGLEFKKHHDYYITSTSNGSLEGLENREGGVCRTRTMKIIMKVGQDPNAVTPEQLTTSRPSKEADNTVKMATQAPGSRGSLGDSDGKHETVNQEEKSGPGASGGSSGDPDGFFNSK
modifications: left off: a dimerising Fc or GST
endothelial capillary-like assembly (HRMEC): did not
attachment of cells in preadsorbed wells (P19 cells): approximately 40%
endothelial cell attachment, plates pre-coated using standard procedures ([1]; alone or in the presence of fibrinogen, no nitrocellulose): did not promote cell attachment
cell attachment at densities higher than 300 ng/cm^2 [1, 2]: sharp decline
coating density evoking maximal cell attachment [1, 2]: 300 ng/cm^2
endothelial attachment, ligand adsorbed to nitrocellulose-coated surfaces ([1]; non-denaturing conditions, with fibrinogen, compared with Fc control human IgG1): promoted endothelial attachment
